{
  "source": "patent US20200240995A1",
  "about": "“KDAC VARIANTS AND USES THEREOF” (Max-Planck-Gesellschaft Zur Forderung Der Wissenschaften …, priority 2017, published 2020)",
  "molecules": {"B1": {"name": "Debocylase-1: E. coli CobB mutant I131V V148L (protein)", "chain": "KPRVLVLTGAGISAESGIRTFRAADGLWEEHRVEDVATPEGFDRDPELVQAFYNARRRQLQQPEIQPNAAHLALAKLQDALGDRFLLVTQNVDNLHERAGNTNVIHMHGELLKVRCSQSGQVLDWTGDVTPEDKCHCCQFPAPLRPHLVWFGEMPLGMDEIYMALSMADIFIAIGTSGHVYPAAGFVHEAKLHGAHTVELNLEPSQVGNEFAEKYYGPASQVVPEFVEKLLKGLKAGSIA", "modifications": "Debocylase-1", "notes": "E. coli CobB mutant I131V V148L"}, "B2": {"name": "Decrotonylase-1: E. coli CobB mutant A37R Y53G R56T I92R V148L (protein)", "chain": "KPRVLVLTGAGISAESGIRTFRAADGLWEEHRVEDVRTPEGFDRDPELVQAFGNATRRQLQQPEIQPNAAHLALAKLQDALGDRFLLVTQNRDNLHERAGNTNVIHMHGELLKVRCSQSGQVLDWTGDVTPEDKCHCCQFPAPLRPHLVWFGEMPLGMDEIYMALSMADIFIAIGTSGHVYPAAGFVHEAKLHGAHTVELNLEPSQVGNEFAEKYYGPASQVVPEFVEKLLKGLKAGSIA", "modifications": "Decrotonylase-1", "notes": "E. coli CobB mutant A37R Y53G R56T I92R V148L"}, "B3": {"name": "Dealocase-1: E. coli CobB mutant A37S Y53W R56W I92V (protein)", "chain": "KPRVLVLTGAGISAESGIRTFRAADGLWEEHRVEDVSTPEGFDRDPELVQAFWNAWRRQLQQPEIQPNAAHLALAKLQDALGDRFLLVTQNVDNLHERAGNTNVIHMHGELLKVRCSQSGQVLDWTGDVTPEDKCHCCQFPAPLRPHVVWFGEMPLGMDEIYMALSMADIFIAIGTSGHVYPAAGFVHEAKLHGAHTVELNLEPSQVGNEFAEKYYGPASQVVPEFVEKLLKGLKAGSIA", "modifications": "Dealocase-1", "notes": "E. coli CobB mutant A37S Y53W R56W I92V"}, "B4": {"name": "Dealocase-3: E. coli CobB mutant I131S V148L (protein)", "chain": "KPRVLVLTGAGISAESGIRTFRAADGLWEEHRVEDVATPEGFDRDPELVQAFYNARRRQLQQPEIQPNAAHLALAKLQDALGDRFLLVTQNSDNLHERAGNTNVIHMHGELLKVRCSQSGQVLDWTGDVTPEDKCHCCQFPAPLRPHLVWFGEMPLGMDEIYMALSMADIFIAIGTSGHVYPAAGFVHEAKLHGAHTVELNLEPSQVGNEFAEKYYGPASQVVPEFVEKLLKGLKAGSIA", "modifications": "Dealocase-3", "notes": "E. coli CobB mutant I131S V148L"}, "B5": {"name": "Dealocase-2: E. coli CobB mutant A37G R56G I92V (protein)", "chain": "KPRVLVLTGAGISAESGIRTFRAADGLWEEHRVEDVGTPEGFDRDPELVQAFYNAGRRQLQQPEIQPNAAHLALAKLQDALGDRFLLVTQNVDNLHERAGNTNVIHMHGELLKVRCSQSGQVLDWTGDVTPEDKCHCCQFPAPLRPHVVWFGEMPLGMDEIYMALSMADIFIAIGTSGHVYPAAGFVHEAKLHGAHTVELNLEPSQVGNEFAEKYYGPASQVVPEFVEKLLKGLKAGSIA", "modifications": "Dealocase-2", "notes": "E. coli CobB mutant A37G R56G I92V"}},
  "tested_on": "Firefly luciferase modified at K529",
  "experiment": "Dual luciferase reporter (DLR) assay in E. coli whole cell lysates",
  "type": "cell-based",
  "details": "normalized to Renilla luciferase, relative to wild-type CobB; for DLR activity [rel. to wild-type], AcK: AcK at K529; for DLR activity [rel. to wild-type], AlocK: AlocK at K529; for DLR activity [rel. to wild-type], BocK: BocK at K529; for DLR activity [rel. to wild-type], CrK: CrK at K529",
  "description": "FIG. 3: Evolved CobB variants can activate Firefly luciferase modified at K529. Dual luciferase reporter (DLR) assays were performed with E. coli producing DLR with the indicated modification of K529 in the Firefly enzyme. Activities were normalized to genetically fused Renilla luciferase and plotted relative to the activity observed for wild-type CobB on the same substrate. A) CobB mutant able to discriminate crotonyl-over acetyl-lysine. B) CobB mutants active against protected forms of lysine.\nThe mutants isolated in the selections were tested using Firefly dual luciferase assays. E. coli DH10B ΔpyrF ΔcobB were transformed with plasmids expressing Firefly luciferase with the relevant modification on lysine-529 and the cobB mutants. Luciferase activity was tested directly in whole cell lysates and compared to the activity of wild-type cobB towards the modifications. The activities observed for the evolved KDAC variants correlated well with the activities observed in the uracil selections (FIG. 3).",
  "data": [
    {"molecule": "B1", "values": [
      {"measurement": "DLR activity [rel. to wild-type], AcK", "value": "1.25 rel. to wild-type"},
      {"measurement": "DLR activity [rel. to wild-type], AlocK", "value": "8.35 rel. to wild-type"},
      {"measurement": "DLR activity [rel. to wild-type], BocK", "value": "8.65 rel. to wild-type"},
      {"measurement": "DLR activity [rel. to wild-type], CrK", "value": "2.90 rel. to wild-type"}
    ]},
    {"molecule": "B2", "values": [
      {"measurement": "DLR activity [rel. to wild-type], AcK", "value": "0.00 rel. to wild-type"},
      {"measurement": "DLR activity [rel. to wild-type], AlocK", "value": "0.02 rel. to wild-type"},
      {"measurement": "DLR activity [rel. to wild-type], BocK", "value": "0.04 rel. to wild-type"},
      {"measurement": "DLR activity [rel. to wild-type], CrK", "value": "0.10 rel. to wild-type"}
    ]},
    {"molecule": "B3", "values": [
      {"measurement": "DLR activity [rel. to wild-type], AcK", "value": "0.49 rel. to wild-type"},
      {"measurement": "DLR activity [rel. to wild-type], AlocK", "value": "10.83 rel. to wild-type"},
      {"measurement": "DLR activity [rel. to wild-type], BocK", "value": "2.88 rel. to wild-type"},
      {"measurement": "DLR activity [rel. to wild-type], CrK", "value": "5.73 rel. to wild-type"}
    ]},
    {"molecule": "B4", "values": [
      {"measurement": "DLR activity [rel. to wild-type], AcK", "value": "0.35 rel. to wild-type"},
      {"measurement": "DLR activity [rel. to wild-type], AlocK", "value": "6.00 rel. to wild-type"},
      {"measurement": "DLR activity [rel. to wild-type], BocK", "value": "0.65 rel. to wild-type"},
      {"measurement": "DLR activity [rel. to wild-type], CrK", "value": "1.00 rel. to wild-type"}
    ]},
    {"molecule": "B5", "values": [
      {"measurement": "DLR activity [rel. to wild-type], AcK", "value": "1.19 rel. to wild-type"},
      {"measurement": "DLR activity [rel. to wild-type], AlocK", "value": "10.23 rel. to wild-type"},
      {"measurement": "DLR activity [rel. to wild-type], BocK", "value": "0.77 rel. to wild-type"},
      {"measurement": "DLR activity [rel. to wild-type], CrK", "value": "2.11 rel. to wild-type"}
    ]}
  ]
}
